T1: DEAF1-FLAG (human, UniProt O75398 1-565)
T1 sequence: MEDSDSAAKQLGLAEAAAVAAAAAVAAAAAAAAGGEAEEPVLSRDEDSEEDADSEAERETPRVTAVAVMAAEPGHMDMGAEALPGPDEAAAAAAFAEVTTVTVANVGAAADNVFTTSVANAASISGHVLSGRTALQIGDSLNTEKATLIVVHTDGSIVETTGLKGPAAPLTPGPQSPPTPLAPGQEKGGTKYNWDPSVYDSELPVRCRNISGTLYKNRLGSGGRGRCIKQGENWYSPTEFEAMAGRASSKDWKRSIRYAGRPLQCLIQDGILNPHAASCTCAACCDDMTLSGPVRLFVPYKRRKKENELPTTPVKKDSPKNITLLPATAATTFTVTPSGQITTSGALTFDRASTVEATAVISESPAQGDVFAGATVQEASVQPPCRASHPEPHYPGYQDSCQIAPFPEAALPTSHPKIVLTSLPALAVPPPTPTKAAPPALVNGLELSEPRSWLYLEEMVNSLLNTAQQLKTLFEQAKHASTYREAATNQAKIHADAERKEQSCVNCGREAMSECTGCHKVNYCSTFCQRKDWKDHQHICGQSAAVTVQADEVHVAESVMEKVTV

B1: Mut 2 (dsDNA)
DNA 1: TTTTGCTTCCCACTTTTG
DNA 2: CAAAAGTGGGAAGCAAAA
B2: N52-69 (dsDNA)
DNA 1: TTCGGCTTCCCACTTCGG
DNA 2: CCGAAGTGGGAAGCCGAA

Legend:
[1] = target: T1, DEAF1-FLAG; experiment: EMSA; no shift; EMSA: 100 mM KCl, 50 mM Tris pH 7.5, 1 mM DTT, 25 °C, 30 min protein preincubation then 30 min with 32P probe; 4% native gel; conditions: protein: recombinant; tags: FLAG (C-terminal, from the name DEAF1-FLAG; also written FLAG-DEAF1); chain copies: 2; label: 32P in EMSA
[2] = target: Ku70;FLAG-Ku80 (human?;human?, UniProt P12956;P13010 1-609;1-732, |); experiment: EMSA; DNA end binding; EMSA: 100 mM KCl, 50 mM Tris pH 7.5, 1 mM DTT, 25 °C, 30 min protein preincubation then 30 min with 32P probe; 4% native gel; conditions: protein: recombinant;recombinant; tags: none;FLAG (N-terminal, from the name); copies: 1;1; label: 32P in EMSA
Sequence of Ku70;FLAG-Ku80 (P12956 whole entry, chain 1 of 2): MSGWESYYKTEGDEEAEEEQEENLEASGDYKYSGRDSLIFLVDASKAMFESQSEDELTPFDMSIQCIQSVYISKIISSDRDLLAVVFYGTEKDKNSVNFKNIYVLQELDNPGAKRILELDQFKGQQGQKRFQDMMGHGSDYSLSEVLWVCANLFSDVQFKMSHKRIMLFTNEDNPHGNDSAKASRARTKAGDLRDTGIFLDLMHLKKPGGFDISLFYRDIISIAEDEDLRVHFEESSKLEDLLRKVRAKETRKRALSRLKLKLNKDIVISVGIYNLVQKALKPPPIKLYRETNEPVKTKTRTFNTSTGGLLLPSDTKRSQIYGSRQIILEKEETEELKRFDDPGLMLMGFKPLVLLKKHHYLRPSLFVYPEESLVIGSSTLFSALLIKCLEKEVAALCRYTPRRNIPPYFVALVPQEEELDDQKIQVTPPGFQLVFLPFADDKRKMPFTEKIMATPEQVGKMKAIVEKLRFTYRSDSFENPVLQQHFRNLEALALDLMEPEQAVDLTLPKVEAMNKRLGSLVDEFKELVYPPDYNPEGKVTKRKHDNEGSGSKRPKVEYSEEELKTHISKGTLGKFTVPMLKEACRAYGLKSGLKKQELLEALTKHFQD
Sequence of Ku70;FLAG-Ku80 (P13010 whole entry, chain 2 of 2): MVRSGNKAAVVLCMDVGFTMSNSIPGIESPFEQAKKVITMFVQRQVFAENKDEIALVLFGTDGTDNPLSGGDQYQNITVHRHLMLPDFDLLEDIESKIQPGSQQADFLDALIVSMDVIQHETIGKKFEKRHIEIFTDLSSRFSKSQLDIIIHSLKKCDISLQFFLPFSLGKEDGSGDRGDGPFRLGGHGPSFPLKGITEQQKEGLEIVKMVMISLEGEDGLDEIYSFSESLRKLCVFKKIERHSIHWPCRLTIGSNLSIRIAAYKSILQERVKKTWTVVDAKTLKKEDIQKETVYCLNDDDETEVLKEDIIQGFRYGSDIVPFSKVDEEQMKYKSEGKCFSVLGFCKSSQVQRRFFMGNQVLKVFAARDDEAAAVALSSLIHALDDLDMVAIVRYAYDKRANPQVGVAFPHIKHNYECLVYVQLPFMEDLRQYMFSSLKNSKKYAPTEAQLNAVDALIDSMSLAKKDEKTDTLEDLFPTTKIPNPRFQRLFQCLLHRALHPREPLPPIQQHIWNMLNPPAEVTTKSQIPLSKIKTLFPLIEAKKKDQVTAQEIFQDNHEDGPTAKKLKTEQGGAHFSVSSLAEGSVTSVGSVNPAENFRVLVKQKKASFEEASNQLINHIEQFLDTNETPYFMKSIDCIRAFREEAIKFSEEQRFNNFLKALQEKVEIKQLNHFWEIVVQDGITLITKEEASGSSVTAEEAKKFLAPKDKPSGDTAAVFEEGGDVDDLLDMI

[3] = target: T1, DEAF1-FLAG; experiment: EMSA; doublet of shifted bands; EMSA: 100 mM KCl, 50 mM Tris pH 7.5, 1 mM DTT, 25 °C, 30 min protein preincubation then 30 min with 32P probe; 4% native gel; conditions: protein: recombinant; tags: FLAG (C-terminal, from the name DEAF1-FLAG; also written FLAG-DEAF1); chain copies: 2; label: 32P in EMSA

Row | Binder | binding result [1] | binding result [2] | binding result [3]
1 | B1 | no binding | binds | –
2 | B2 | – | binds | binds

Source: paper PMC3307728
